Test results published in patent EP4814018A2 (F. Hoffmann-La Roche AG, dated 2026).
Residue numbers refer to the chain shown, from its start.

B1: murine anti-transferrin receptor antibody 128.1 (antibody, V domains shown)
VH: QVQLVQSGAEVKKPGASVKVSCKASGYTFTGYTMNWVRQAPGQGLEWMGRINPHNGGTDYAQKFQGRVTMTRDTSISTAYMELSRLRSDDTAVYYCARGYYYYSLDYWGQGTLVTVSS
VL: DIQMTQSPSSLSASVGDRVTITCRASSSIRYIHWYQQKPGKAPKRLIYDTSNLASGVPSRFSGSGSGTEFTLTISSLQPEDFATYYCHQRNSYPWTFGQGTRLEIK
B2: clone 494 VH 1 / VL 0 (mu) (antibody, V domains shown)
VH: QVQLVQSGAEVKKPGASVKVSCKASGFNIKDTYIHWVIQAPGQGLEWMGRIDPANGDTKSDPKFQVRVTITADTSTSTVYMELSSLRSEDTAVYYCVRDYLYPYYFDFWGQGTTVTVSS
VL: KIVMTQSPKSMSMSVGERVTLNCRASESVDTYVSWYQQKPEQSPELLIYGASNRYTGVPDRFTGSGSATDFTLTISSVQAEDLADYYCGQTYNYPLTFGAGTKLELKR
B3: clone 494 VH 2 / VL 0 (mu) (antibody, V domains shown)
VH: B2 VH with D61A
VL: B2 VL
B4: clone 494 VH 3 / VL 0 (mu) (antibody, V domains shown)
VH: B2 VH with V66G
VL: B2 VL
B5: clone 494 VH 4 / VL 0 (mu) (antibody, V domains shown)
VH: B2 VH with A16S, V66G, T74E, V79A
VL: B2 VL
B6: clone 494 VH 0 (mu) / VL 1 (antibody, V domains shown)
VH: EVQLQQSGAVLVKPGASVKLSCPASGFNIKDTYIHWVIQRPEQGLEWIGRIDPANGDTKCDPKFQVKATITADTSSNTAYLQLSSLTSEDTAVYFCVRDYLYPYYFDFWGQGTTLTVSS
VL: KIQMTQSPSSLSASVGDRVTITCRASESVDTYVSWYQQKPGKAPKLLIYGASNRYTGVPSRFSGSGSGTDFTLTISSLQPEDFADYYCGQTYNYPLTFGQGTKLEI
B7: clone 494 VH 2 / VL 1 (antibody, V domains shown)
VH: B2 VH with D61A
VL: B6 VL
B8: clone 494 VH 3 / VL 1 (antibody, V domains shown)
VH: B2 VH with V66G
VL: B6 VL
B9: clone 494 VH 4 / VL 1 (antibody, V domains shown)
VH: B2 VH with A16S, V66G, T74E, V79A
VL: B6 VL
B10: clone 494 VH 0 (mu) / VL 2 (antibody, V domains shown)
VH: B6 VH
VL: KIVLTQSPGTLSLSPGERATLSCRASESVDTYVSWYQQKPGQAPRLLIYGASNRYTGVPDRFSGSGSGTDFTLTISRLEPEDFADYYCGQTYNYPLTFGQGTKLEI
B11: clone 494 VH 1 / VL 2 (antibody, V domains shown)
VH: B2 VH
VL: B10 VL
B12: clone 494 VH 3 / VL 2 (antibody, V domains shown)
VH: B2 VH with V66G
VL: B10 VL
B13: clone 494 VH 4 / VL 2 (antibody, V domains shown)
VH: B2 VH with A16S, V66G, T74E, V79A
VL: B10 VL
B14: clone 494 VH 0 (mu) / VL 3 (antibody, V domains shown)
VH: B6 VH
VL: B10 VL with K1E
B15: clone 494 VH 1 / VL 3 (antibody, V domains shown)
VH: B2 VH
VL: B10 VL with K1E
B16: clone 494 VH 2 / VL 3 (antibody, V domains shown)
VH: B2 VH with D61A
VL: B10 VL with K1E
B17: clone 494 VH 4 / VL 3 (antibody, V domains shown)
VH: B2 VH with A16S, V66G, T74E, V79A
VL: B10 VL with K1E
B18: clone 494 VH 0 (mu) / VL 4 (antibody, V domains shown)
VH: B6 VH
VL: B10 VL with V58I
B19: clone 494 VH 1 / VL 4 (antibody, V domains shown)
VH: B2 VH
VL: B10 VL with V58I
B20: clone 494 VH 2 / VL 4 (antibody, V domains shown)
VH: B2 VH with D61A
VL: B10 VL with V58I
B21: clone 494 VH 3 / VL 4 (antibody, V domains shown)
VH: B2 VH with V66G
VL: B10 VL with V58I
B22: clone-299 (antibody, V domains shown)
VH: QSMEESGGRLVTPGTPLTLTCTVSGFSLSSYAMSWVRQAPGKGLEWIGYIWSGGSTDYASWAKGRFTISKTSTTVDLKITSPTTEDTATYFCARRYGTSYPDYGDANGFDPWGPGTLVTVSS
VL: AYDMTQTPASVEVAVGGTVTIKCQASQSISSYLSWYQQKPGQRPKLLIYRASTLASGVSSRFKGSGSGTQFTLTISGVECADAATYYCQQCYSSSNVDNTFGGGTEVVVK
notes: Rabbit variable domains

What follows are binders tested against T1, cynomolgus transferrin receptor on stably transfected CHO cells (cynomolgus) (assay: FACS on cyTfR CHO cells).
T1 construct: whole, on cells; also called Cyno TfR-CHO; cyTfR (FACS)

EC50 [µg/mL]	Binder
0.314	B1

What follows are binders tested against T2, human transferrin receptor (human, UniProt P02786 89-760) (assay: SPR off-rate).
T2 construct: also called huTfR; hTfR
T2 sequence (P02786 89-760 limits assumed): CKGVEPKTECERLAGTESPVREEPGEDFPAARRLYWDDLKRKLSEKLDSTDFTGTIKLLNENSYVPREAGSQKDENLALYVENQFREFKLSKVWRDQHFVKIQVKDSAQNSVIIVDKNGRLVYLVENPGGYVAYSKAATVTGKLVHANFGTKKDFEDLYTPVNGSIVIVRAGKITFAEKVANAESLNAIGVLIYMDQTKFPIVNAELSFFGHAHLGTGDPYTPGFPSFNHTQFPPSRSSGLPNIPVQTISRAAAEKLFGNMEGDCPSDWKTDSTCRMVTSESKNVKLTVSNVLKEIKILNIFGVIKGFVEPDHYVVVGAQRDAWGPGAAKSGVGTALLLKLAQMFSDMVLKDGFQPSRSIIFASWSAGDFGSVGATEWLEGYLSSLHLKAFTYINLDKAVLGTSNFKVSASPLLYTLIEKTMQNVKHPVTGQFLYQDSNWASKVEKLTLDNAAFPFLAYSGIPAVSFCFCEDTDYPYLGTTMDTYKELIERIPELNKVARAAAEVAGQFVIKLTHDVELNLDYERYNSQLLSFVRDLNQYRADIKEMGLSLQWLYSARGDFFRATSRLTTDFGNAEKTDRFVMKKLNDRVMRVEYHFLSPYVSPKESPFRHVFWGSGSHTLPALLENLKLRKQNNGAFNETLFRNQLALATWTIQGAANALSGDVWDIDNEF

koff [s⁻¹]	Binder
0.000137	B2
0.000156	B3
0.000148	B4
0.000177	B5
0.00037	B6
0.000454	B7
0.000476	B8
0.000448	B9
0.000364	B10
0.000399	B11
0.000415	B12
0.000438	B13
0.000339	B14
0.000386	B15
0.00043	B16
0.000452	B17
0.000542	B18
0.000657	B19
0.000703	B20
0.000683	B21

Each binder was assayed against T3, cynomolgus transferrin receptor (cynomolgus, UniProt H9EXL1 89-760 (rhesus entry)) (assay: BIAcore T200, biotinylated TfR captured (Example 13), 25 °C).
T3 construct: also called cyTfR; Cyno TfR
T3 sequence (chain, as listed by the source): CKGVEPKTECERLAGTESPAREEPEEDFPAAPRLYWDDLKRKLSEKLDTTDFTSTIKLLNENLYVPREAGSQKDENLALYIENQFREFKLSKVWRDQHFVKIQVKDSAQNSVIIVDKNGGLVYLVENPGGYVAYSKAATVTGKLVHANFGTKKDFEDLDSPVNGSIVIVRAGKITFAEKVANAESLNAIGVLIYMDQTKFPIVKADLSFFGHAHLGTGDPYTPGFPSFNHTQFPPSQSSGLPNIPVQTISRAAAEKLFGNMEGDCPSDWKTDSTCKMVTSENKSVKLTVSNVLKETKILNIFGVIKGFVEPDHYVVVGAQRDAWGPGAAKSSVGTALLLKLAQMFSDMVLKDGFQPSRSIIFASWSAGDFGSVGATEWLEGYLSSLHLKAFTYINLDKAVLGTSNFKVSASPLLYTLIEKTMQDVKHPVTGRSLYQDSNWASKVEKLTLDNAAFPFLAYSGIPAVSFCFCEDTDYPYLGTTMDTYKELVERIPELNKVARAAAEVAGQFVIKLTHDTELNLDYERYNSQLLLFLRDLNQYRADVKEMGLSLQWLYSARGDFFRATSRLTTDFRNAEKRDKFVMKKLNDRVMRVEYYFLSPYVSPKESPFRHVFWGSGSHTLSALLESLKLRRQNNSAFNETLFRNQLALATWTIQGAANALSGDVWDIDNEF

Kd [nM]	koff [s⁻¹]	kon [M⁻¹ s⁻¹]	Binder
136	0.0733	541000	B1

Each binder was assayed against T1, cynomolgus transferrin receptor on … (assay: FACS, cyno against human TfR CHO cells).

ratio EC50 Cyno/ human	ratio max Cyno/ human	Binder
0.9	1	B22
3.3	0.6	B1

These binders were tested against T2, human transferrin receptor (assay: BIAcore).

BIAcore t1/2 [min]	Binder
19	B22
19	B1

Each binder was assayed against T3, cynomolgus transferrin receptor (assay: BIAcore).

BIAcore t1/2 [min]	Binder
42	B22
0.2	B1

The binders below were run against T3, cynomolgus transferrin receptor (assay: BIAcore B4000, biotinylated TfR captured (Example 14), 25 °C).

koff [s⁻¹]	Binder
0.0778	B1
